Measured values from patent US20030022244A1.

Biological target: mutant p53 protein
Experiment: method not stated

B1: ME1 single-chain antibody (scFv ME1) (scFv)
scFv: QVKLQQSGAELAKPGASVKMSCKTSGYTFTSYWMNWVKQRPGQGLEWIGYINPTTGYTKYNQKFKDKATLTADKSSSTAYMQLSSLTNVDSAVYYCTTGYSYFDYWGQGTTVTVSSGGGGSGGGGSGGGGSDIELTQSPAIMSASPGEKVTITCSASSSVNYMHWFQQKPGTSPKLWISSTSNLASGVPARFSGSGSGTSYSLTISRMEAEDAATYYCQQRSSYPYTFGGGTKLQIKRAAAGAPVPYPDPLEPRAA
Kd: 100 nM
